Target: Shiga toxin type 2 (Stx2) (Escherichia coli) (UniProt P09385)
Assay: cell-based or functional assay

**Q.** With monoclonal antibody 11E10 as the substance, how does the percent neutralization of cytotoxicity for Vero cells read?
**A.** 65%

Source: US20110318357A1
